Experiments:
ICAM-3 = target: T1, ICAM-3 (Homo sapiens, UniProt P32942); assay: BIAcore binding of soluble αL I-domains to ICAM-3; details: 1:1 interaction model
T1 sequence (P32942 30-485 limits assumed): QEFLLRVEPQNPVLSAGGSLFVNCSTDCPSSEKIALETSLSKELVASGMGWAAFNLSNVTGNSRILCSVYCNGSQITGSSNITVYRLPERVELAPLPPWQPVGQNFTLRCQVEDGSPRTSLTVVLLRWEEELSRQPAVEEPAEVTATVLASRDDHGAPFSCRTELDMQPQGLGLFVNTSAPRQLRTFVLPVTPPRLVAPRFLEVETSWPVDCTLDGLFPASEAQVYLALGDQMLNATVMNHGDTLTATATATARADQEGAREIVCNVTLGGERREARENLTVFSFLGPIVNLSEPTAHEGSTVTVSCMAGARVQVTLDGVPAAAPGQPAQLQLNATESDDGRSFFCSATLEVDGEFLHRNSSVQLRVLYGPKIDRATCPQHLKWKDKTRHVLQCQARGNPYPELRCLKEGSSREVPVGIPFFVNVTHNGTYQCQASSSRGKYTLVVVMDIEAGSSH
Experimental: Briefly, recombinant mutant αL I-domain stabilized in the open conformation (K287C/K294C), or recombinant wild-type αL I-domain from amino acid residue G128 to Y307, were cloned into pET11b (Novagen) and expressed in E. coli induced with 1 mM IPTG for 4 hours. The recombinant proteins were purified from inclusion bodies by solubilization of inclusion bodies in 6M guanidine HCl and were refolded by dilution in the presence of 0.1 mM Cu^2+/phenanthrolin to enhance formation of disulfide bonds. Protein was concentrated by ammonium sulfate precipitation, dialyzed, and purified over a monoQ ion-exchange column. […] The recombinant proteins were then purified by gel filtration and concentrated by Centriprep. For BIAcore™ analysis, recombinant ICAM-1, ICAM-2 and ICAM-3 Fc chimeras were immobilized on the BIAcore™ sensor chip by an amine-coupling method. Recombinant αL I-domains were flowed in, and BIAcore™ assays were performed with Tris-buffered saline supplemented with 1 mM MgCl2 or 2 mM EDTA, at a flow rate of 10 μl/minute at 25° C.

ICAM-1 = ICAM-1 (Homo sapiens, UniProt P05362); assay: Binding of LFA-1 or isolated I-domain transfectants to immobilized ICAM-1; assay type: cell-based; design: ICAM-1 was purified from human tonsil; from tissue; host or cells: human tonsil
Experimental: Clones of the transfectants that expressed similar levels of cell surface LFA-1, as determined by flow cytometry using monoclonal antibody TS2/4 (FIG. 3B), were tested for their ability to bind to immobilized ICAM-1, as previously described (Lu, C and Springer, T A (1997) J Immunol 159:268-278).
Briefly, ICAM-1 was purified from human tonsil, and coated to 96-well plates as described previously (Lu, C and Springer T A, (1997) J Immunol 159:268-278). Cells were labeled with a florescence dye 2′,7′-bis-(carboxyethyl)-5(and-6)-carboxyfluorescein, acetoxymethyl ester (BCECF-AM), and resuspended to 1×10^6/ml in L15/FBS. 50 μl cell suspension was mixed in ICAM-1 coated wells with an equal volume of L15/FBS in the absence or presence of monoclonal antibody (CBRLFA-1/2, 10 μg/ml). Monoclonal antibodies were used at final concentration of 1:20 hybridoma supernatant, 1:200 ascites, or μg/ml purified IgG. For testing the effect of divalent cations, BCECF-AM-labeled cells were washed 2× with TS buffer, pH7.5 (20 mM Tris, pH 7.5, 150 mMNaCl) containing 5 mM EDTA, followed by 2 washes with TS buffer, pH7.5. Cells were then resuspended to 5×10^5/ml in the TS buffer, pH7.5 supplemented with 1 mM MgCl2/CaCl2, MgCl2, MnCl2 mM EDTA, and 100 μl cell suspension was added to ICAM-1 coated wells. After incubation at 37° C. for 30 minutes, unbound cells were washed off on a Microplate Autowasher (Bio-Tek Instruments, Winooski, Vt.). The fluorescence content of total input cells and the bound cells in each well was quantitated on a Fluorescent Concentration Analyzer (IDEXX, Westbrook, Me.). The bound cells were expressed as a percentage of total input cells per sample well.
For generating stable K562 transfectants that express the I-domain on the surface, 20 μg of SspI-linearized pcDNA3.1/Hygro(+) containing the sequences encoding the I domain and the PDGFR transmembrane domain was used to transfect K562 cells by electroporation as described above. Transfectants were selected for resistance to 100 μg/ml hygromycin B, and were further subcloned by cell sorting and limiting dilution; clones that expressed similar levels of surface wild-type and mutant I domain-PDGFR were selected for functional studies. Stable cell lines were maintained in RPMI medium 1640 supplemented with 10% FBS and 100 μg/ml hygromycin B. Cell surface expression of the isolated I-domains was determined by flow cytometry using antibody TS1/22 to the I-domain (FIG. 7). Two clones from each transfectant were selected and tested for binding to immobilized ICAM-1, and similar results were obtained with each of the two clones (FIG. 8A).
If the constitutive ligand binding activity of mutant K287C/K294C is due to the formation of a disulfide bond between the introduced C287 and C294, disruption of the disulfide bond with a reducing agent would abolish ligand binding ability of the mutant. Accordingly, the transfectants were treated with the reducing agent DTT (10 mM) in L15/FBS containing Mg^2+ and Ca^2+, and the ability of transfectants to bind to ICAM-1 was assessed.
Furthermore, the effect of divalent cations on ligand binding of the isolated I-domains expressed on the surface of K562 transfectants was tested. The binding reactions were performed in HEPES/NaCl/glucose (20 mM HEPES, pH 7.5, 140 mM NaCl, 2 mg/ml glucose) supplemented with 1 mM […], 1 mM Mg^2+, or 1 mM EDTA.

Chain of ICAM-1 (P05362 28-532): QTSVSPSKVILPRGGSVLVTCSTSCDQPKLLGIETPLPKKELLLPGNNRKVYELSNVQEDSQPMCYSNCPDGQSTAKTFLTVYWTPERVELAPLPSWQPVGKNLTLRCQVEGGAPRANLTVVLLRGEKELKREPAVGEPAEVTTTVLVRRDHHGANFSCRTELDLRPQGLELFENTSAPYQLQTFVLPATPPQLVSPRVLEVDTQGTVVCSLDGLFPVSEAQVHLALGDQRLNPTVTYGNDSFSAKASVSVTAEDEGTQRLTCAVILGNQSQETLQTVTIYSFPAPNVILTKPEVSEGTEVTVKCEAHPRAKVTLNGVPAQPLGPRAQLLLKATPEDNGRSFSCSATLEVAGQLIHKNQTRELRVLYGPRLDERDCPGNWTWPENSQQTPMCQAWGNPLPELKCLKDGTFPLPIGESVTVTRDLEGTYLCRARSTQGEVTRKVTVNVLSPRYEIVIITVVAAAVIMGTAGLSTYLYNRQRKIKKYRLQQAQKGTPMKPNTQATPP

- Koff, open I-domain binding to ICAM-3 (ICAM-3): 0.0749 s⁻¹
- Kon, open I-domain binding to ICAM-3 (ICAM-3): 19000 M⁻¹ s⁻¹
- binding of 293T transient transfectants to immobilized ICAM-1 (ICAM-1; 293T, no activating antibody): constitutively strong binding
- binding of K562 cells expressing isolated I-domains to immobilized ICAM-1 (ICAM-1; I-domain on cell surface via PDGFR transmembrane domain): strong binding
- binding of isolated I-domain to ICAM-1 after EDTA treatment (ICAM-1; K562, 1 mM EDTA): abolished
- binding of K562 stable transfectants to immobilized ICAM-1 with activating mAb CBRLFA-1/2 (ICAM-1; K562, CBRLFA-1/2 10 μg/ml): did not further enhance binding
- binding of K562 transfectants to ICAM-1 in the presence of EDTA (ICAM-1; K562, intact LFA-1, EDTA): abolished
- binding of K562 stable transfectants to immobilized ICAM-1 (ICAM-1; K562, no activating antibody): strongly bound
- effect of DTT treatment on binding to ICAM-1 (ICAM-1; K562 transfectants, DTT 10 mM in L15/FBS): abolished
B1: K287C/K294C: human αL (LFA-1) I-domain with K287 and K294 replaced by cysteines; high affinity locked open; tested in intact LFA-1, cell-surface and soluble forms (protein)
chain: GNVDLVFLFDGSMSLQPDEFQKILDFMKDVMKKLSNTSYQFAAVQFSTSYKTEFDFSDYVKRKDPDALLKHVKHMLLLTNTFGAINYVATEVFREELGARPDATKVLIIITDGEATDSGNIDAAKDIIRYIIGIGKHFQTKESQETLHKFASKPASEFVCILDTFECLKDLFTELQKKIY
notes: human αL (LFA-1) I-domain with K287 and K294 replaced by cysteines; tested in intact LFA-1, cell-surface and soluble forms
